This is an account of results in patent US20040266684.

The target of this series is T1, purified human Lys77-Plasminogen, P00747.
T1 chain: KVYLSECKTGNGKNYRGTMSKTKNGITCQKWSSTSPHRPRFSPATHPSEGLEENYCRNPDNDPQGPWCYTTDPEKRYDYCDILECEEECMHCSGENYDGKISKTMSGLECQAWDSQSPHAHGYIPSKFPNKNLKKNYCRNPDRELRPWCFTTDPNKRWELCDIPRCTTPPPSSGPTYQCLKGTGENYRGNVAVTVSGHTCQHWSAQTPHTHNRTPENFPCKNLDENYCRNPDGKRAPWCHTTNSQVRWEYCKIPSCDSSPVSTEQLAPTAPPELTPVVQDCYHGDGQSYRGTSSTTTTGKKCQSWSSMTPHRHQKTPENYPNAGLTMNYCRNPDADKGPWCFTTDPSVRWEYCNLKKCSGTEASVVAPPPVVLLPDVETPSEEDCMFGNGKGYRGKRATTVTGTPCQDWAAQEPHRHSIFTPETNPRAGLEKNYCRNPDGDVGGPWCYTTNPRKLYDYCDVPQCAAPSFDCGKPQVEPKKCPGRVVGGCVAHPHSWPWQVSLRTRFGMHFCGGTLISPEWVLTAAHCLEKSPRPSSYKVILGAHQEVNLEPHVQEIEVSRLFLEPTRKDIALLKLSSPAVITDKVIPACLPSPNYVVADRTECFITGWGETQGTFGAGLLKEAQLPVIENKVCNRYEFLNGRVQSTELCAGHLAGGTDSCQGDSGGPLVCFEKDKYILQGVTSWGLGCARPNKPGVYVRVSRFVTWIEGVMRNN

B1: thiolated streptokinase (protein)
chain: IAGPEWLLDRPSVNNSQLVVSVAGTVEGTNQDISLKFFEIDLTSRPAHGGKTEQGLSPKSKPFATDSGAMSHKLEKADLLKAIQEQLIANVHSNDDYFEVIDFASDATITDRNGKVYFADKDGSVTLPTQPVQEFLLSGHVRVRPYKEKPIQNQAKSVDVEYTVQFTPLNPDDDFRPGLKDTKLLKTLAIGDTITSQELLAQAQSILNKNHPGYTIYERDSSIVTHDNDIFRTILPMDQEFTYRVKNREQAYRINKKSGLNEEINNTDLISEKYYVLKKGEKPYDPFDRSHLKLFTIKYVDVDTNELLKSEQLLTASERNLDFRDLYDPRDKAKLLYNNLDAFGIMDYTLTGKVEDNHDDTNRIITVYMGKRPEGENASYHLAYDKDRYTEEEREVYSYLRYTGTPIPDNPNDK
On to B1, for which the “plasmin generated in the plasminogen activation assay (S-2251 substrate units)” value is reported as “thiolated SK (1 nM) generated plasmin at a nearly linear of 4225 SU/ml”.
